This note sets out measurements from US20220064330A1.

One series deals with complement C3 (UniProt P01024).

complement C3, P01024, sequence (P01024 whole entry, looked up): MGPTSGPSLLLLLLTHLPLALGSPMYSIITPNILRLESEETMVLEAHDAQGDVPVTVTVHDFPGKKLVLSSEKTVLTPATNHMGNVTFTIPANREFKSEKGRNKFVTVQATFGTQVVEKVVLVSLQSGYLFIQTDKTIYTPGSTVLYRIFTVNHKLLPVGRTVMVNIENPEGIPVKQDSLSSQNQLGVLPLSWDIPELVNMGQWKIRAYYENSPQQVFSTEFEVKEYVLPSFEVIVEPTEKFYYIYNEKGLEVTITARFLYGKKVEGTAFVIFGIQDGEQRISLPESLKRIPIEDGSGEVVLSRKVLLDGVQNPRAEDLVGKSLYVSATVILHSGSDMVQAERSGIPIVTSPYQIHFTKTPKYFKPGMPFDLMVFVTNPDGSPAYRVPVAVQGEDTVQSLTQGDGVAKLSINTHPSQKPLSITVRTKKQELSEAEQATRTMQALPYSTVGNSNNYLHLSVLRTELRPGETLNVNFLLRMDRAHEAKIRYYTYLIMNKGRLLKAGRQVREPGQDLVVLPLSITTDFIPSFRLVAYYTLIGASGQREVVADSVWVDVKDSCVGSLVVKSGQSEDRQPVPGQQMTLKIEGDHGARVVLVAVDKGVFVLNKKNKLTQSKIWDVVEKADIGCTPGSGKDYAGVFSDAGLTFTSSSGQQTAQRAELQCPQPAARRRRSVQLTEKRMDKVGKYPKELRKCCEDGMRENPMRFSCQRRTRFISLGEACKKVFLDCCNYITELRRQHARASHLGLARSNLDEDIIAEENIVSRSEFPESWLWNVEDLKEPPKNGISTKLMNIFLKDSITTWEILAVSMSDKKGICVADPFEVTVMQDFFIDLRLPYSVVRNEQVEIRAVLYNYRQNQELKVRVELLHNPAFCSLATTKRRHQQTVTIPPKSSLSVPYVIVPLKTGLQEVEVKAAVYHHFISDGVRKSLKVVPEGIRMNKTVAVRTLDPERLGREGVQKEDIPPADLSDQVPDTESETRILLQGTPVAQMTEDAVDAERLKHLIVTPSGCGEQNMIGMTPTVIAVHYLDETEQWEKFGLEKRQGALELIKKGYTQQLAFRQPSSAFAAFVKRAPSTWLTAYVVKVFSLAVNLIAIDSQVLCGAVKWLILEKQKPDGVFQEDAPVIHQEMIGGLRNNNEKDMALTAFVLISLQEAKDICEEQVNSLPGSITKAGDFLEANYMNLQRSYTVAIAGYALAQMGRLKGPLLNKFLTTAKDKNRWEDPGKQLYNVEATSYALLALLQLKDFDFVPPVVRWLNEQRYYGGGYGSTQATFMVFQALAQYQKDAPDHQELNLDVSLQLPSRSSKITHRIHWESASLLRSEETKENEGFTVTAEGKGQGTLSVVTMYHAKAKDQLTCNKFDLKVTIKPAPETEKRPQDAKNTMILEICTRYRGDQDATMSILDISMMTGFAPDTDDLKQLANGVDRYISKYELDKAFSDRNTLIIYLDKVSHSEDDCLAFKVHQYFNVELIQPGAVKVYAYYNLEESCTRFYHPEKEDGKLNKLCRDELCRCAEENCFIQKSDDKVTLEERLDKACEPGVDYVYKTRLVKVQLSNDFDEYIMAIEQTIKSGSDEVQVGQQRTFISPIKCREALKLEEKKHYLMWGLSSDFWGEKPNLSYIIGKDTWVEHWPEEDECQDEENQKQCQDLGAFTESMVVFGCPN

“human FXa (activated human clotting factor X)”: in the series with complement C3, the “cleavage of the C3 a-chain to the a' chain (Western blot)” value was “can cleave C3 in vitro in the absence of any complement proteases”. On the same count and under the same terms, then “human FXIa (activated human clotting factor XI)”, with “can cleave C3 in vitro in the absence of any complement proteases”.

B1: bovine FXa (activated bovine clotting factor X) (protein)
chain: ANSFLEEVKQGNLERECLEEACSLEEAREVFEDAEQTDEFWSKYKDGDQCEGHPCLNQGHCKDGIGDYTCTCAEGFEGKNCEFSTREICSLDNGGCDQFCREERSEVRCSCAHGYVLGDDSKSCVSTERFPCGKFTQGRSRRWAIHTSEDALDASELEHYDPADLSPTESSLDLLGLNRTEPSAGEDGSQVVRIVGGRDCAEGECPWQALLVNEENEGFCGGTILNEFYVLTAAHCLHQAKRFTVRVGDRNTEQEEGNEMAHEVEMTVKHSRFVKETYDFDIAVLRLKTPIRFRRNVAPACLPEKDWAEATLMTQKTGIVSGFGRTHEKGRLSSTLKMLEVPYVDRSTCKLSSSFTITPNMFCAGYDTQPEDACQGDSGGPHVTRFKDTYFVTGIVSWGEGCARKGKFGVYTKVSNFLKWIDKIMKARAGAAGSRGHSEAPATWTVPPPLPL
With B1, in the series with complement C3, P01024, the “cleavage of the C3 a-chain to the a' chain (Western blot)” value is recorded as “can cleave C3 in vitro in the absence of any complement proteases”.
